Measured values taken from the supplement of paper PMC10126150.
± gives the standard deviation of the averaged measurements.

Test system: ATP
Assay: switch fluorescence ratio, 500 uM ATP over buffer (Cy3 cluster intensity, sum of 5 cycles each) (fold (ratio)); higher = stronger signal-on switching upon ATP binding; sequences stand for … in TCGTCGGCAGCGTCAGATGTGTATAAGAGACAGTTTTTTTTTTTTTTTTTTTTTTTTT…TC
Conditions: aptamer strand: ATP DNA aptamer (quencher-CACCTGGGGGAGTATTGCGGAGGAAGG + anchor), 100 nM annealed; ATP concentration: 500 uM
Summary of the method: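 Between each of five buffer/ATP cycles, the flow-cell was stripped with NaOH and re-annealed. Each cycle imaged Cy3-labelled switching-strand clusters, annealed to 100 nM quencher-labelled ATP aptamer on a modified Illumina MiSeq flow-cell, first in selection buffer and then after 15 min with 500 uM ATP at 22 °C. The fluorescence ratio is summed target-cycle over summed buffer-cycle Cy3 intensity per cluster, averaged per switch-domain sequence, with clusters outside 100-1000 RFU excluded.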
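Note: ATP exposure 15 min at 22 °C before imaging.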

Row | Sequence | switch fluorescence ratio
1 | ATCATTATAT | 0.99007 ± 0.00051
2 | ATCATTATTG | 1 ± 0.013
3 | ATCCCCATGG | 1.91 ± 0.051
4 | ATCCCCGGCC | 1.03 ± 0.022
5 | ATCCGAGATG | 1.034 ± 0.0074
6 | ATCCGGGTTC | 1 ± 0.015
7 | ATCCGTTTTG | 0.986 ± 0.02
8 | ATCCTACAGC | 1.1 ± 0.025
9 | ATCCTATTGT | 1.03 ± 0.036
10 | ATCCTCGATT | 0.964 ± 0.0095
11 | ATCCTGCAGT | 1.15 ± 0.031
12 | ATCGAAGAGG | 0.995 ± 0.048
13 | ATCGAAGGGG | 0.981 ± 0.065
14 | ATCGAATAGC | 1.02 ± 0.034
15 | ATCGACGGGG | 1.01 ± 0.01
16 | ATCGACGTTT | 1.03 ± 0.055
17 | ATCGATATAT | 0.991 ± 0.036
18 | ATCGATCTGG | 1 ± 0.015
19 | ATCGCAGCTC | 1.62 ± 0.017
20 | ATCGCAGGCG | 1.035 ± 0.0068
21 | ATCGCATGTC | 1.23 ± 0.094
22 | ATCGCCATCC | 1.235 ± 0.0026
23 | ATCGCCTTGC | 1.163 ± 0.001
24 | ATCGCGTTGG | 0.983 ± 0.027
25 | ATCGGAAACT | 1.03 ± 0.039
26 | ATCGGAAGAA | 1.01 ± 0.017

Row | Sequence | switch fluorescence ratio
27 | ATCGGAAGCG | 1.03 ± 0.011
28 | ATCGGAATGG | 1.05 ± 0.024
29 | ATCGGACTTG | 0.977 ± 0.033
30 | ATCGGAGGTC | 0.978 ± 0.037
31 | ATCGGAGTAT | 0.996 ± 0.034
32 | ATCGGATTTT | 1.17 ± 0.22
33 | ATCGGCGTAT | 1.01 ± 0.012
34 | ATCGGGAATG | 1.019 ± 0.0018
35 | ATCGGGACGG | 0.9829 ± 0.0029
36 | ATCGGGAGAG | 1.05 ± 0.026
37 | ATCGGGAGGA | 1 ± 0.029
38 | ATCGGGGGGA | 0.986 ± 0.034
39 | ATCGGGGGGG | 1 ± 0.035
40 | ATCGGGGTAG | 0.9985 ± 0.0038
41 | ATCGGGGTGC | 1.03 ± 0.016
42 | ATCGGTGGTG | 0.9839 ± 0.0058
43 | ATCGTAAGGG | 0.983 ± 0.038
44 | ATCGTAATTT | 0.971 ± 0.062
45 | ATCGTCAGAA | 0.969 ± 0.0068
46 | ATCGTCGTGC | 0.975 ± 0.015
47 | ATCGTGAGGC | 1.05 ± 0.022
48 | ATCGTGTG | 1.01 ± 0.038
49 | ATCGTGTTTG | 0.952 ± 0.043
50 | ATCGTTCGGC | 0.976 ± 0.037
51 | ATCGTTCTGC | 1.1 ± 0.019
52 | ATCGTTTATT | 0.99436 ± 0.00033

Row | Sequence | switch fluorescence ratio
53 | ATCGTTTTTT | 0.973 ± 0.018
54 | ATCTAAGTTC | 1.01 ± 0.017
55 | ATCTAGCGGA | 1.02 ± 0.022
56 | ATCTAGGCAG | 0.9915 ± 0.0043
57 | ATCTATCCAC | 1.09 ± 0.037
58 | ATCTATCTTG | 0.9777 ± 0.0012
59 | ATCTATGCTT | 0.989 ± 0.023
60 | ATCTATGGGT | 0.987 ± 0.01
61 | ATCTATTAGC | 0.9896 ± 0.009
62 | ATCTATTGGG | 0.991 ± 0.0066
63 | ATCTATTGTG | 0.974 ± 0.013
64 | ATCTCGGATT | 0.9869 ± 0.0041
65 | ATCTCGGCCG | 0.9864 ± 0.0012
66 | ATCTCGGGCT | 0.973 ± 0.042
67 | ATCTGAATTG | 0.988 ± 0.013
68 | ATCTGCGCGC | 0.992 ± 0.011
69 | ATCTGGGGGA | 0.979 ± 0.046
70 | ATCTGGGGTG | 1.02 ± 0.03
71 | ATCTGTACGA | 1.02 ± 0.027
72 | ATCTGTGATA | 0.977 ± 0.048
73 | ATCTGTGATG | 0.987 ± 0.024
74 | ATCTGTTTTG | 1.02 ± 0.049
75 | ATCTTAAGAT | 0.984 ± 0.066
76 | ATCTTAAGTA | 0.9977 ± 0.0091
77 | ATCTTAGGGT | 0.978 ± 0.039
78 | ATCTTAGGTT | 1.03 ± 0.096

Row | Sequence | switch fluorescence ratio
79 | ATCTTCAACT | 1.052 ± 0.01
80 | ATCTTCCCCC | 1.55 ± 0.016
81 | ATCTTGGCAG | 0.968 ± 0.034
82 | ATCTTGGTTG | 1 ± 0.026
83 | ATCTTTGCTA | 1 ± 0.036
84 | ATGAAAAATT | 1.01 ± 0.031
85 | ATGAAAACGT | 1 ± 0.014
86 | ATGAAAGCAC | 1.09 ± 0.061
87 | ATGAAATAGT | 0.959 ± 0.046
88 | ATGAACATTT | 1 ± 0.033
89 | ATGAAGATTA | 0.987 ± 0.043
90 | ATGAAGTCGC | 1.01 ± 0.025
91 | ATGAATCTCG | 0.9898 ± 0.0075
92 | ATGACGCGGA | 1.048 ± 0.0097
93 | ATGACTTACG | 1.08 ± 0.02
94 | ATGAGAAGTT | 1.01 ± 0.007
95 | ATGAGATCAG | 1.003 ± 0.005
96 | ATGAGCATGG | 1.1 ± 0.016
97 | ATGAGCCACT | 0.994 ± 0.03
98 | ATGAGCGACG | 0.9921 ± 0.0088
99 | ATGAGGAGTT | 0.996 ± 0.025
100 | ATGAGGCCTT | 1.01 ± 0.019
101 | ATGAGGGCTA | 0.983 ± 0.044
102 | ATGAGGGGAA | 1.04 ± 0.034
103 | ATGAGTACAG | 1.02 ± 0.027
104 | ATGAGTGTGG | 1.02 ± 0.021

Row | Sequence | switch fluorescence ratio
105 | ATGATATCTA | 0.993 ± 0.022
106 | ATGATATGGT | 0.983 ± 0.029
107 | ATGATCGATG | 0.979 ± 0.026
108 | ATGATCGGGT | 1.02 ± 0.031
109 | ATGATGGGT | 1.01 ± 0.028
110 | ATGATTAAGA | 1.02 ± 0.019
111 | ATGATTGGAT | 0.996 ± 0.029
112 | ATGATTGGTT | 1 ± 0.022
113 | ATGATTGTGG | 0.997 ± 0.028
114 | ATGATTTAAC | 0.976 ± 0.035
115 | ATGATTTGGT | 0.983 ± 0.026
116 | ATGATTTTTT | 0.985 ± 0.012
117 | ATGCAAATGC | 1.41 ± 0.017
118 | ATGCAAGGTC | 1.12 ± 0.049
119 | ATGCACCTCG | 1.025 ± 0.006
120 | ATGCAGATCC | 1.04 ± 0.042
121 | ATGCATATGG | 1.03 ± 0.013
122 | ATGCATTTTA | 0.999 ± 0.045
123 | ATGCATTTTT | 1.02 ± 0.043
124 | ATGCCAAAGG | 1.01 ± 0.055
125 | ATGCCATTAG | 0.967 ± 0.02
126 | ATGCCTGATA | 0.963 ± 0.029
127 | ATGCGAGCAA | 1.11 ± 0.019
128 | ATGCGATCAA | 1.02 ± 0.014
129 | ATGCGGACAG | 1.011 ± 0.0083
130 | ATGCGGGTTC | 1.01 ± 0.012

Row | Sequence | switch fluorescence ratio
131 | ATGCGGTCTG | 1.04 ± 0.028
132 | ATGCTATACT | 1.6 ± 0.022
133 | ATGCTCTTAT | 1 ± 0.012
134 | ATGCTGGTGG | 0.978 ± 0.046
135 | ATGCTGTCTG | 1 ± 0.043
136 | ATGCTTAGGG | 0.944 ± 0.02
137 | ATGGAAGAGG | 0.982 ± 0.018
138 | ATGGAATTGT | 0.986 ± 0.022
139 | ATGGACAGGT | 1.04 ± 0.031
140 | ATGGAGAGAG | 0.9929 ± 0.004
141 | ATGGAGTAAA | 1.005 ± 0.0084
142 | ATGGAGTCGG | 0.986 ± 0.021
143 | ATGGATAGTC | 0.986 ± 0.044
144 | ATGGATATAT | 0.995 ± 0.016
145 | ATGGATTGCA | 0.994 ± 0.023
146 | ATGGATTGTG | 0.983 ± 0.011
147 | ATGGATTTAA | 1.012 ± 0.0041
148 | ATGGATTTAC | 1.06 ± 0.028
149 | ATGGCAAAGA | 0.9828 ± 0.0096
150 | ATGGCAGGAT | 1 ± 0.063
151 | ATGGCAGGTA | 0.992 ± 0.033
152 | ATGGCATAAG | 1.003 ± 0.0044
153 | ATGGCGGACG | 0.981 ± 0.05
